Columns and labels:
[1] = Depth-dependent quenching of Trp fluorescence by brominated (diBr) phosphatidylcholines; format: physicochemical; conditions: 6,7-, 9,10- or 11,12-diBr PC : POPG 1:1 vesicles, 1.2 mM lipid
Protocol: For depth-dependent fluorescence quenching experiments with brominated lipids, LUVs contained a 1:1 molar ratio of POPG and POPC 6,7-, 9,10-, or 11,12-1-palmitoyl-2-stearoyl(dibromo)-sn-glycero-3-phosphocholine (diBr; Avanti Polar Lipids, Alabaster, AL). Fluorescence spectra were recorded between 300 and 450 nm using an excitation wavelength of 280 nm, corrected for vesicle scattering and normalized to the zero lipid fluorescence intensity.

[2] = Membrane partitioning into lipid vesicles detected with intrinsic Trp fluorescence (blue shift); format: physicochemical; conditions: lipid vesicles POPC:POPG 1:1
Protocol: Large unilamellar vesicles (LUVs) were prepared by drying the phospholipids from a chloroform solution under a nitrogen stream. The dried lipid film was rehydrated in buffer containing 10 mM HEPES, 1 mM EDTA, pH 7.6 (HEB). The resulting dispersions were extruded through 100 nm pore size polycarbonate filters (Millipore Corp.) till the solution became clear. All fluorescence measurements were performed in quartz cuvettes with 1 cm path length. Fluorescence spectra (averaging three spectra) were recorded between 300 and 450 nm (5 nm band pass, 0° polarizer) using an excitation wavelength of 280 nm (5 nm band pass, 90° polarizer) (SPEX FluoroMax 3 spectrofluorometer) and corrected for vesicle scattering. […] Mole-fraction partitioning coefficients (Kx) were calculated by measuring the fluorescence intensity (F) at 320 nm and normalizing to the zero lipid fluorescence intensity (F0) ([Ladokhin et al., 2000]; [Milescu et al., 2007]). Kx was calculated based on the best fits of the following equation to the data: F/F0(L) = 1 + (F/F0^max − 1)Kx[L]/([W] + Kx[L]), where F/F0(L) is the change in fluorescence intensity for a given concentration of lipid, F/F0^max is the maximum fluorescence increase at high lipid concentrations, [L] is the average available lipid concentration (60% of total lipid concentration) and [W] is the molar concentration of water (55.3 M).

[3] = tested on: Kv2.1-ASIC1a chimeras; assay: Effect of PcTx1 on G-V relations of Kv2.1-ASIC1a chimeras in oocytes; format: cell-based; conditions: 5 µM PcTx1, extracellular application, external 50 mM KCl, n = 3
Excerpt: Chimeras were generated using sequential PCR with the Kv2.1∆7 channel ([Li-Smerin and Swartz, 1998]) as template. Primers encoding the 9-amino acid sequence of helix-5 from ASIC1a were utilized for overlap PCR. The DNA sequence of all constructs and mutants was confirmed by automated DNA sequencing. Complementary RNA (cRNA) was synthesized using T7 polymerase (mMessage mMachine kit; Ambion) after linearizing the DNA with appropriate restriction enzymes.
Oocytes from Xenopus laevis were removed surgically and incubated with agitation for 1 hr in a solution containing (in mM) 82.5 NaCl, 2.5 KCl, 1 MgCl2, 5 HEPES, pH 7.6 (with NaOH), and collagenase (2 mg/ml; Worthington Biochemical). Defolliculated oocytes were injected with cRNA encoding the Kv2.1 channel constructs and incubated at 17°C in a solution containing (in mM) 96 NaCl, 2 KCl, 1 MgCl2, 1.8 CaCl2, 5 HEPES, pH 7.6 with NaOH, and gentamicin (50 μg/ml, GIBCO-BRL), for 16–72 hr before electrophysiological recording. Oocyte membrane voltage was controlled using an OC-725C oocyte clamp (Warner Instruments). Data were filtered at 1 kHz and digitized at 10 kHz. Microelectrode resistances were 0.1–1 MΩ when filled with 3 M KCl. […] All experiments were performed at room temperature (∼22°C). Voltage-activations relationships in the absence and presence of different concentrations of the synthesized toxin were recorded. […]

[4] = tested on: ASIC1a; conditions: ref Chen et al., 2006; Dawson et al., 2012; cited from earlier work
Excerpt: PcTx1 also contains an Arg finger motif composed of R26, R27 and R28 that is required for […] of ASIC through interactions with channel residues situated in a crevice between subunits. In the case of voltage-sensor toxins such as hanatoxin and GxTx-1E, the S3b helix within the voltage-sensing domains of Kv channels co ...

[5] = Acrylamide quenching of Trp fluorescence (Stern-Volmer), protection by lipid vesicles; format: physicochemical; conditions: n = 3
Protocol: (§1) Protection of tryptophan fluorescence from acrylamide quenching was examined in the absence and presence of lipids (toxin: lipid = 1:500) by titration with increasing concentrations of acrylamide ([Milescu et al., 2007]). The Stern–Volmer quenching constant (KSV) was calculated based on the best fits of the following equation to the data: F0/F = 1 + KSV[Q], where F0 and F are fluorescence of the toxin in the absence and presence of acrylamide, and [Q] is the concentration of acrylamide. […] A solution containing ∼ 2 µM toxin and 0.3 M acrylamide was stirred continuously with addition of increasing concentrations of LUVs composed of 1:1 mixture of POPC and POPG. Fluorescence spectra (averaging three spectra) were recorded between 300 and 450 nm (5 nm band pass, 0° polarizer) using an excitation wavelength of 280 nm (5 nm band pass, 90° polarizer) (SPEX FluoroMax 3 spectrofluorometer) and corrected for vesicle scattering. For calculating mole–fraction partitioning coefficients (Kdx), the maximal fluorescence intensity (F at λmax) was measured and normalized to the zero lipid fluorescence intensity (F0). […]

[6] = Acrylamide dequenching by lipid vesicles (quenching-enhanced fluorescence titration); format: physicochemical; conditions: LUVs POPC:POPG 1:1
Protocol: as §1

[7] = molecular target: T1, Kv2.1 channel (Rattus norvegicus, UniProt P15387); assay: Inhibition of Kv2.1 channel currents in Xenopus oocytes (two-electrode voltage clamp), apparent affinity; format: cell-based
T1 construct: expressed in transfected cells; host or cells: Xenopus laevis oocytes, cRNA injection
T1 sequence (P15387 1-857): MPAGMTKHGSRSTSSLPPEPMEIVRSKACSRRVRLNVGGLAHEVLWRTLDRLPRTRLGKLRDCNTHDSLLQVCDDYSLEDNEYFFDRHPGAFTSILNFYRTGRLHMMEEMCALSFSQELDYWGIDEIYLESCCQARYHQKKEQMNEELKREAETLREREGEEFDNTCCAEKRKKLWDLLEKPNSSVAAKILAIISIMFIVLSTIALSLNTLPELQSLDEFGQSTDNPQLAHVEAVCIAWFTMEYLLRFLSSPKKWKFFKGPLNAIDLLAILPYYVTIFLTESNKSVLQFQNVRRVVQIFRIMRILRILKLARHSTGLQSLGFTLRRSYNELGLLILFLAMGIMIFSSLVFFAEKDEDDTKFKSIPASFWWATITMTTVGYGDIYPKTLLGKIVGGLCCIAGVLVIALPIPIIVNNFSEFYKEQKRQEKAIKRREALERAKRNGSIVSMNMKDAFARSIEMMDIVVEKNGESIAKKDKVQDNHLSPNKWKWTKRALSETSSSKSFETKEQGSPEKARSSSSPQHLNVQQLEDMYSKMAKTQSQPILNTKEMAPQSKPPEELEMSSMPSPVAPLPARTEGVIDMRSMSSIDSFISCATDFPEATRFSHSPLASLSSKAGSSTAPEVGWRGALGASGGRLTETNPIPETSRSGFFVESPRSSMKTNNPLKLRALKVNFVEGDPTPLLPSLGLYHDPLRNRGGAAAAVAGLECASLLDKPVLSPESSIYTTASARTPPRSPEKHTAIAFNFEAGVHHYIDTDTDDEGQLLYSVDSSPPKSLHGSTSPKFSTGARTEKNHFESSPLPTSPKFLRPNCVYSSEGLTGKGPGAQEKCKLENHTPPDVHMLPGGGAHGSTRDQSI

[8] = analysis of quenching profiles with brominated lipids; ref Phillips et al., 2005; Swartz, 2007; Jung et al., 2010; Mihailescu et al., 2014; cited from earlier work
Excerpt: The results thus far reveal that both classes of tarantula toxins interact quite favorably with lipid membranes. […] For example, the solvent accessible surface area for the hydrophobic surface of PcTx1 is 380 Å^2, which compares with a value of 703 Å^2 for GxTx-1E. In addition, the hydrophobic surfaces on the two toxins are situated on distinct surfaces (Figure 1D,E). These differences between PcTx1 an ...

PcTx1
quenching of Trp fluorescence by brominated lipids (in words) [1]: very weak quenching
maximal blue shift of Trp emission spectrum upon addition of lipid vesicles [2]: ~2 nm
effect on activity of five Kv2.1-ASIC1a chimeras (G-V relations) [3]: no discernible effect
affinity for ASIC1a (in words) [4]: nM affinity
Ksv (Stern–Volmer constant), acrylamide quenching in aqueous solution ([5]; toxin ∼2 µM in solution, no lipid): 29.2 M⁻¹
Ksv (Stern–Volmer constant), acrylamide quenching in presence of lipid vesicles ([5]; toxin ∼2 µM with 1.0 mM POPC:POPG 1:1 vesicles (toxin:lipid 1:500)): 11.2 M⁻¹
Kdx (mole-fraction partitioning coefficient from acrylamide dequenching) ([6]; maximal fluorescence intensity vs available lipid, ∼2 µM toxin, acrylamide 0.2 M / 0.3 M (methods), mean ± SEM (n = 3)): (4.3 ± 0.6) × 10^6
F/F0^max (dequenching function fit) ([6]; maximum fluorescence increase at highest lipid concentration, acrylamide present): 2.7 ± 0.08
effect on the Kv2.1 channel (G-V relation) ([7]; 5 µM PcTx1, oocytes, external solution 50 mM KCl, tail currents, n = 3): no effect

CC(C)C[C@@H]1NC(=O)CNC(=O)[C@H](Cc2c[nH]c3ccccc23)NC(=O)[C@H](CCCCN)NC(=O)[C@@H]2CCCN2C(=O)[C@H](CO)NC(=O)[C@@H]2CSSC[C@@H]3NC(=O)[C@H](CCCCN)NC(=O)[C@H](Cc4c[nH]c5ccccc45)NC(=O)[C@H](Cc4c[nH]c5ccccc45)NC(=O)[C@H](Cc4ccccc4)NC(=O)CNC(=O)CNC(=O)[C@@H](NC(=O)[C@H](CCC(=O)O)NC(=O)CNC(=O)[C@@H](N)CCC(=O)O)CSSC[C@H](NC(=O)[C@H](CSSC[C@@H](C(=O)N[C@@H](CC(N)=O)C(=O)N[C@@H](Cc4ccccc4)C(=O)N4CCC[C@H]4C(=O)N[C@@H](C)C(=O)N4CCC[C@H]4C(=O)O)NC1=O)NC(=O)[C@H](C)NC(=O)[C@@H]1CCCN1C(=O)[C@H](CCCCN)NC(=O)CNC(=O)[C@H](CO)NC(=O)CNC3=O)C(=O)N1CCC[C@H]1C(=O)N[C@@H](CCCCN)C(=O)N[C@@H](Cc1ccc(O)cc1)C(=O)N[C@@H](C(C)C)C(=O)N2 [Nle35A]
∆∆G (perturbation energy) ([7]; from apparent Kd of mutant vs GxTx-1E(Nle), Kv2.1 in oocytes): 0.19 kcal/mol

hanatoxin
position of Trp residues from the center of the bilayer [8]: 8–9 Å
